# Data from patent US20190170753A1.
# Assays:
# [1] = biological target: Mut1T110N biotin labeled HCV core peptide (hepatitis C virus); experiment: capture EIA; Ab 15.6 ng/mL; bt-peptide 500 ng/mL (summary of Table 7)
# [2] = biological target: 92-133 biotin labeled HCV core peptide (hepatitis C virus) (UniProt Q9WMX2); experiment: as above
# [3] = biological target: Mut6T110S biotin labeled HCV core peptide (hepatitis C virus); experiment: as above
# [4] = biological target: C113T109N biotin labeled HCV core peptide (hepatitis C virus); experiment: as above
# [5] = biological target: Mut1T110N biotin labeled HCV core peptide (hepatitis C virus); experiment: capture EIA; Ab 1000 ng/mL; bt-peptide 500 ng/mL
# [6] = biological target: 92-133 biotin labeled HCV core peptide (hepatitis C virus) (UniProt Q9WMX2); experiment: capture EIA; Ab 1000 ng/mL; bt-peptide 500 ng/mL
# [7] = biological target: Mut6T110S biotin labeled HCV core peptide (hepatitis C virus); experiment: capture EIA; Ab 1000 ng/mL; bt-peptide 500 ng/mL
# [8] = biological target: C113T109N biotin labeled HCV core peptide (hepatitis C virus); experiment: capture EIA; Ab 1000 ng/mL; bt-peptide 500 ng/mL
# [9] = biological target: Mut1T110N biotin labeled HCV core peptide (hepatitis C virus); experiment: capture EIA; Ab 15.625 ng/mL; bt-peptide 500 ng/mL
# [10] = biological target: 92-133 biotin labeled HCV core peptide (hepatitis C virus) (UniProt Q9WMX2); experiment: capture EIA; Ab 15.625 ng/mL; bt-peptide 500 ng/mL
# [11] = biological target: Mut6T110S biotin labeled HCV core peptide (hepatitis C virus); experiment: capture EIA; Ab 15.625 ng/mL; bt-peptide 500 ng/mL
# [12] = biological target: C113T109N biotin labeled HCV core peptide (hepatitis C virus); experiment: capture EIA; Ab 15.625 ng/mL; bt-peptide 500 ng/mL
# [13] = biological target: Mut1T110N biotin labeled HCV core peptide (hepatitis C virus); experiment: capture EIA; Ab 250 ng/mL; bt-peptide 500 ng/mL
# [14] = biological target: 92-133 biotin labeled HCV core peptide (hepatitis C virus) (UniProt Q9WMX2); experiment: capture EIA; Ab 250 ng/mL; bt-peptide 500 ng/mL
# [15] = biological target: Mut6T110S biotin labeled HCV core peptide (hepatitis C virus); experiment: capture EIA; Ab 250 ng/mL; bt-peptide 500 ng/mL
# [16] = biological target: C113T109N biotin labeled HCV core peptide (hepatitis C virus); experiment: capture EIA; Ab 250 ng/mL; bt-peptide 500 ng/mL
# [17] = biological target: Mut1T110N biotin labeled HCV core peptide (hepatitis C virus); experiment: capture EIA; Ab 3.906 ng/mL; bt-peptide 500 ng/mL
# [18] = biological target: 92-133 biotin labeled HCV core peptide (hepatitis C virus) (UniProt Q9WMX2); experiment: capture EIA; Ab 3.906 ng/mL; bt-peptide 500 ng/mL
# [19] = biological target: Mut6T110S biotin labeled HCV core peptide (hepatitis C virus); experiment: capture EIA; Ab 3.906 ng/mL; bt-peptide 500 ng/mL
# [20] = biological target: C113T109N biotin labeled HCV core peptide (hepatitis C virus); experiment: capture EIA; Ab 3.906 ng/mL; bt-peptide 500 ng/mL
# [21] = biological target: Mut1T110N biotin labeled HCV core peptide (hepatitis C virus); experiment: capture EIA; Ab 31.25 ng/mL; bt-peptide 500 ng/mL
# [22] = biological target: 92-133 biotin labeled HCV core peptide (hepatitis C virus) (UniProt Q9WMX2); experiment: capture EIA; Ab 31.25 ng/mL; bt-peptide 500 ng/mL
# [23] = biological target: Mut6T110S biotin labeled HCV core peptide (hepatitis C virus); experiment: capture EIA; Ab 31.25 ng/mL; bt-peptide 500 ng/mL
# [24] = biological target: C113T109N biotin labeled HCV core peptide (hepatitis C virus); experiment: capture EIA; Ab 31.25 ng/mL; bt-peptide 500 ng/mL
# [25] = biological target: Mut1T110N biotin labeled HCV core peptide (hepatitis C virus); experiment: capture EIA; Ab 125 ng/mL; bt-peptide 500 ng/mL
# [26] = biological target: 92-133 biotin labeled HCV core peptide (hepatitis C virus) (UniProt Q9WMX2); experiment: capture EIA; Ab 125 ng/mL; bt-peptide 500 ng/mL
# [27] = biological target: Mut6T110S biotin labeled HCV core peptide (hepatitis C virus); experiment: capture EIA; Ab 125 ng/mL; bt-peptide 500 ng/mL
# [28] = biological target: C113T109N biotin labeled HCV core peptide (hepatitis C virus); experiment: capture EIA; Ab 125 ng/mL; bt-peptide 500 ng/mL
# [29] = biological target: Mut1T110N biotin labeled HCV core peptide (hepatitis C virus); experiment: capture EIA; Ab 62.5 ng/mL; bt-peptide 500 ng/mL
# [30] = biological target: 92-133 biotin labeled HCV core peptide (hepatitis C virus) (UniProt Q9WMX2); experiment: capture EIA; Ab 62.5 ng/mL; bt-peptide 500 ng/mL
# [31] = biological target: Mut6T110S biotin labeled HCV core peptide (hepatitis C virus); experiment: capture EIA; Ab 62.5 ng/mL; bt-peptide 500 ng/mL
# [32] = biological target: C113T109N biotin labeled HCV core peptide (hepatitis C virus); experiment: capture EIA; Ab 62.5 ng/mL; bt-peptide 500 ng/mL
# [33] = biological target: Mut1T110N biotin labeled HCV core peptide (hepatitis C virus); experiment: capture EIA; Ab 1.953 ng/mL; bt-peptide 500 ng/mL
# [34] = biological target: 92-133 biotin labeled HCV core peptide (hepatitis C virus) (UniProt Q9WMX2); experiment: capture EIA; Ab 1.953 ng/mL; bt-peptide 500 ng/mL
# [35] = biological target: Mut6T110S biotin labeled HCV core peptide (hepatitis C virus); experiment: capture EIA; Ab 1.953 ng/mL; bt-peptide 500 ng/mL
# [36] = biological target: C113T109N biotin labeled HCV core peptide (hepatitis C virus); experiment: capture EIA; Ab 1.953 ng/mL; bt-peptide 500 ng/mL
# [37] = biological target: Mut1T110N biotin labeled HCV core peptide (hepatitis C virus); experiment: capture EIA; Ab 500 ng/mL; bt-peptide 500 ng/mL
# [38] = biological target: 92-133 biotin labeled HCV core peptide (hepatitis C virus) (UniProt Q9WMX2); experiment: capture EIA; Ab 500 ng/mL; bt-peptide 500 ng/mL
# [39] = biological target: Mut6T110S biotin labeled HCV core peptide (hepatitis C virus); experiment: capture EIA; Ab 500 ng/mL; bt-peptide 500 ng/mL
# [40] = biological target: C113T109N biotin labeled HCV core peptide (hepatitis C virus); experiment: capture EIA; Ab 500 ng/mL; bt-peptide 500 ng/mL
# [41] = biological target: Mut1T110N biotin labeled HCV core peptide (hepatitis C virus); experiment: capture EIA; Ab 0.977 ng/mL; bt-peptide 500 ng/mL
# [42] = biological target: 92-133 biotin labeled HCV core peptide (hepatitis C virus) (UniProt Q9WMX2); experiment: capture EIA; Ab 0.977 ng/mL; bt-peptide 500 ng/mL
# [43] = biological target: Mut6T110S biotin labeled HCV core peptide (hepatitis C virus); experiment: capture EIA; Ab 0.977 ng/mL; bt-peptide 500 ng/mL
# [44] = biological target: C113T109N biotin labeled HCV core peptide (hepatitis C virus); experiment: capture EIA; Ab 0.977 ng/mL; bt-peptide 500 ng/mL
# [45] = biological target: Mut1T110N biotin labeled HCV core peptide (hepatitis C virus); experiment: capture EIA; Ab 2000 ng/mL; bt-peptide 500 ng/mL
# [46] = biological target: 92-133 biotin labeled HCV core peptide (hepatitis C virus) (UniProt Q9WMX2); experiment: capture EIA; Ab 2000 ng/mL; bt-peptide 500 ng/mL
# [47] = biological target: Mut6T110S biotin labeled HCV core peptide (hepatitis C virus); experiment: capture EIA; Ab 2000 ng/mL; bt-peptide 500 ng/mL
# [48] = biological target: C113T109N biotin labeled HCV core peptide (hepatitis C virus); experiment: capture EIA; Ab 2000 ng/mL; bt-peptide 500 ng/mL
# [49] = biological target: Mut1T110N biotin labeled HCV core peptide (hepatitis C virus); experiment: capture EIA; Ab 7.813 ng/mL; bt-peptide 500 ng/mL
# [50] = biological target: 92-133 biotin labeled HCV core peptide (hepatitis C virus) (UniProt Q9WMX2); experiment: capture EIA; Ab 7.813 ng/mL; bt-peptide 500 ng/mL
# [51] = biological target: Mut6T110S biotin labeled HCV core peptide (hepatitis C virus); experiment: capture EIA; Ab 7.813 ng/mL; bt-peptide 500 ng/mL
# [52] = biological target: C113T109N biotin labeled HCV core peptide (hepatitis C virus); experiment: capture EIA; Ab 7.813 ng/mL; bt-peptide 500 ng/mL
substance,measurement,setting,value
C11-3 (ABT-4) monoclonal antibody,signal at 492 nm,[1],0.11 A492
same,signal at 492 nm,[2],1.01 A492
same,signal at 492 nm,[3],0.807 A492
same,signal at 492 nm,[4],0.116 A492
same,signal at 492 nm,[5],0.0721 A492
same,signal at 492 nm,[6],1.87 A492
same,signal at 492 nm,[7],2.15 A492
same,signal at 492 nm,[8],0.0806 A492
same,signal at 492 nm,[9],0.11 A492
same,signal at 492 nm,[10],1.01 A492
same,signal at 492 nm,[11],0.807 A492
same,signal at 492 nm,[12],0.116 A492
same,signal at 492 nm,[13],0.0857 A492
same,signal at 492 nm,[14],1.68 A492
same,signal at 492 nm,[15],1.83 A492
same,signal at 492 nm,[16],0.0963 A492
same,signal at 492 nm,[17],0.079 A492
same,signal at 492 nm,[18],0.183 A492
same,signal at 492 nm,[19],0.227 A492
same,signal at 492 nm,[20],0.0833 A492
same,signal at 492 nm,[21],0.107 A492
same,signal at 492 nm,[22],1.55 A492
same,signal at 492 nm,[23],1.54 A492
same,signal at 492 nm,[24],0.16 A492
same,signal at 492 nm,[25],0.127 A492
same,signal at 492 nm,[26],1.83 A492
same,signal at 492 nm,[27],2.02 A492
same,signal at 492 nm,[28],0.147 A492
same,signal at 492 nm,[29],0.155 A492
same,signal at 492 nm,[30],1.92 A492
same,signal at 492 nm,[31],2.11 A492
same,signal at 492 nm,[32],0.202 A492
same,signal at 492 nm,[33],0.0854 A492
same,signal at 492 nm,[34],0.134 A492
same,signal at 492 nm,[35],0.0964 A492
same,signal at 492 nm,[36],0.114 A492
same,signal at 492 nm,[37],0.0765 A492
same,signal at 492 nm,[38],1.95 A492
same,signal at 492 nm,[39],2.24 A492
same,signal at 492 nm,[40],0.0882 A492
same,signal at 492 nm,[41],0.0755 A492
same,signal at 492 nm,[42],0.116 A492
same,signal at 492 nm,[43],0.101 A492
same,signal at 492 nm,[44],0.104 A492
same,signal at 492 nm,[45],0.0915 A492
same,signal at 492 nm,[46],1.45 A492
same,signal at 492 nm,[47],1.73 A492
same,signal at 492 nm,[48],0.0707 A492
same,signal at 492 nm,[49],0.0966 A492
same,signal at 492 nm,[50],0.562 A492
same,signal at 492 nm,[51],0.344 A492
same,signal at 492 nm,[52],0.119 A492
